Laboratory results taken from PMC11239949.

Legend:
[1] = target: Mucin 1 (MUC1) on MCF-7 cells; aptamer designed against the VNTR region (UniProt P15941); assay: whole-cell capture on magnetic beads (fluorescence); conditions: multivalent (apparent), 5x10^4 DAPI-stained MCF-7 cells added to 500 uL A-f-M13-MB (resuspended in PBS), 30 min, 37 C, one-site fit over aptamer concentration
[2] = target: Mucin 1 (MUC1) on MCF-7 cells; aptamer designed against the VNTR region (UniProt P15941); assay: whole-cell fluorescence binding; conditions: DBCO or NH2 at 5' (which version was used as free aptamer is not stated); 5x10^4 DAPI-stained MCF-7 cells added to 500 uL A-f-M13-MB (resuspended in PBS), 30 min, 37 C; one-site fit over aptamer concentration

Sequence of UniProt P15941 (P15941 whole entry): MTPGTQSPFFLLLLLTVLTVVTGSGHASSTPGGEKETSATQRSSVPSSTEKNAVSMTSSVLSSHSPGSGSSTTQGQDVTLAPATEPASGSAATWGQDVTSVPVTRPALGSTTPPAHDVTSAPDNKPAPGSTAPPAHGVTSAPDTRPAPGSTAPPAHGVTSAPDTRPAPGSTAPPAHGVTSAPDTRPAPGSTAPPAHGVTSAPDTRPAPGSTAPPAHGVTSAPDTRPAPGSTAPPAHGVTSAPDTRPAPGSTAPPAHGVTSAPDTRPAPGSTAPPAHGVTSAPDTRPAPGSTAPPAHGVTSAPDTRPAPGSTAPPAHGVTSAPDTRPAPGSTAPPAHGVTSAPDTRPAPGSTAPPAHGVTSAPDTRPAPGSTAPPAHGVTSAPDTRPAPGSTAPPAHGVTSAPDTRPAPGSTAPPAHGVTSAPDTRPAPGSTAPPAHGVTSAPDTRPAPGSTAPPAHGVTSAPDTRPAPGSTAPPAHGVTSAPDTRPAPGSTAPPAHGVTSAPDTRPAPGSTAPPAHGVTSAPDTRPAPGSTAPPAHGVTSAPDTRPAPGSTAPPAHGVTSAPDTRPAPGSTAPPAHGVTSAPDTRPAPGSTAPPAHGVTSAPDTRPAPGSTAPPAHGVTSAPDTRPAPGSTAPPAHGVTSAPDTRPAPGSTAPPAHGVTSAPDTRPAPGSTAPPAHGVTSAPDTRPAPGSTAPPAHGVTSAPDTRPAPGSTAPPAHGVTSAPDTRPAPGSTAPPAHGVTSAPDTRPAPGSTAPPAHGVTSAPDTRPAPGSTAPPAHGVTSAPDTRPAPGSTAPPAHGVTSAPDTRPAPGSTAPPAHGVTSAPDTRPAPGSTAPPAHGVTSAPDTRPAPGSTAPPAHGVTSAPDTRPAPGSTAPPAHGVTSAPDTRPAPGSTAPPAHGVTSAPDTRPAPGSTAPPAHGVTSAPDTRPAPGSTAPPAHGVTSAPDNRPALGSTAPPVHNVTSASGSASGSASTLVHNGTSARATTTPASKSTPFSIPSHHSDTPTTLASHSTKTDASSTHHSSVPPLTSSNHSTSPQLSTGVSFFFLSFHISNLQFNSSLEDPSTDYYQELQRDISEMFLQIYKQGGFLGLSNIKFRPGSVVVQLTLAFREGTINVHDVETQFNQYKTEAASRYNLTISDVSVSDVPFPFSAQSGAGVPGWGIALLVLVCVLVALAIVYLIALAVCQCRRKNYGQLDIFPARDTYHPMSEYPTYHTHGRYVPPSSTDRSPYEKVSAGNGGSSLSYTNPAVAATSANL

## TTTTTGCAGTTGATCCTTTGGATACCCTGG [DBCO-Apt (S2.2) clicked on M13 pVIII]
[1]; A-f-M13-MB, flexible phage, 5' DBCO, coupled to N3-PEG on M13 phage sidewall
  Kd: 0.00109 nM
[1]; A-r-M13-MB, PFA-treated rigid phage, 5' DBCO, coupled to N3-PEG on M13 phage sidewall
  Kd: 0.0248 nM

## TTTTTGCAGTTGATCCTTTGGATACCCTGG [NH2-Apt (S2.2) on magnetic beads]
[1]; A-MB, 5' NH2, coupled to carboxyl magnetic beads
  Kd: 21 nM

## TTTTTGCAGTTGATCCTTTGGATACCCTGG [S2.2 aptamer, free (FAM-labelled)]
[2]
  Kd: 260 nM
